Biological target: T1, DS-Cav1 RSV F (respiratory syncytial virus)
T1 construct: also called DC-VCav1
Experiment: ELISA on DS-Cav1 RSV F

Row | Binder | EC50 [µg/mL]
1 | MPH12 VH-FRGL / MPH12 VL-D25E (antibody, V domains shown, MPH12 variant; VH and VL only) VH: QVQLVESGGGLVKPGGSLRLSCAASGFTFSGFYMKWIRQAPGKGLEWVSSISASGSYTNYADSVEGRFTISRDNAKNSLYLQMNSLRAEDTAVYYCARGDSYCGASACHGEFFHKWGQGTLVTVSS VL: QSVLTQPPSVSGAPGQRVTISCTGSESNIGADFDVHWYQQLPGTAPKLLIYGNINRPSGVPDRFSGSRSGTSAFLAITRLQAEDEADYYCQSYDRSLHYVFGAGTKVTVL | 0.034
2 | MPH12 VH-S63A / MPH12 VL-FRGL (antibody, V domains shown, MPH12 variant; VH and VL only) VH: QVQLVESGGGLVKPGGSLRLSCVASGFTFSGFYMKWIRQAPGKGLEWVSSISASGSYTNYADAVEGRFTVSRDNAKNSLFLLMSSLRAEDTAVYYCARGDSYCGASACHGEFFHKWGQGTLVTVSS VL: QSVLTQPPSVSGAPGQRVTISCTGSDSNIGADFDVHWYQQLPGTAPKLLIYGNINRPSGVPDRFSGSKSGTSASLAITGLQAEDEADYYCQSYDRSLHYVFGTGTKVTVL | 0.0254
3 | MPH12 VH-D62E / MPH12 VL-S26A (antibody, V domains shown, MPH12 variant; VH and VL only) VH: QVQLVESGGGLVKPGGSLRLSCVASGFTFSGFYMKWIRQAPGKGLEWVSSISASGSYTNYAESVEGRFTVSRDNAKNSLFLLMSSLRAEDTAVYYCARGDSYCGASACHGEFFHKWGQGTLVTVSS VL: QSVLTQPPSVSGAPGQRVTISCTGSDANIGADFDVHWYQQLPGTAPKLLIYGNINRPSGVPDRFSGSRSGTSAFLAITRLQAEDEADYYCQSYDRSLHYVFGAGTKVTVL | 0.031
4 | MPH12 VH-D62E / MPH12 VL (antibody, V domains shown, MPH12 variant; VH and VL only) VH: QVQLVESGGGLVKPGGSLRLSCVASGFTFSGFYMKWIRQAPGKGLEWVSSISASGSYTNYAESVEGRFTVSRDNAKNSLFLLMSSLRAEDTAVYYCARGDSYCGASACHGEFFHKWGQGTLVTVSS VL: QSVLTQPPSVSGAPGQRVTISCTGSDSNIGADFDVHWYQQLPGTAPKLLIYGNINRPSGVPDRFSGSRSGTSAFLAITRLQAEDEADYYCQSYDRSLHYVFGAGTKVTVL | 0.0241
5 | MPH12 VH-FRGL / MPH12 VL-S26A (antibody, V domains shown, MPH12 variant; VH and VL only) VH: QVQLVESGGGLVKPGGSLRLSCAASGFTFSGFYMKWIRQAPGKGLEWVSSISASGSYTNYADSVEGRFTISRDNAKNSLYLQMNSLRAEDTAVYYCARGDSYCGASACHGEFFHKWGQGTLVTVSS VL: QSVLTQPPSVSGAPGQRVTISCTGSDANIGADFDVHWYQQLPGTAPKLLIYGNINRPSGVPDRFSGSRSGTSAFLAITRLQAEDEADYYCQSYDRSLHYVFGAGTKVTVL | 0.0397
6 | MPH12 VH-S63A / MPH12 VL-D25E (antibody, V domains shown, MPH12 variant; VH and VL only) VH: QVQLVESGGGLVKPGGSLRLSCVASGFTFSGFYMKWIRQAPGKGLEWVSSISASGSYTNYADAVEGRFTVSRDNAKNSLFLLMSSLRAEDTAVYYCARGDSYCGASACHGEFFHKWGQGTLVTVSS VL: QSVLTQPPSVSGAPGQRVTISCTGSESNIGADFDVHWYQQLPGTAPKLLIYGNINRPSGVPDRFSGSRSGTSAFLAITRLQAEDEADYYCQSYDRSLHYVFGAGTKVTVL | 0.0406
7 | MPH12 VH-D62E / MPH12 VL-D25E (antibody, V domains shown, MPH12 variant; VH and VL only) VH: QVQLVESGGGLVKPGGSLRLSCVASGFTFSGFYMKWIRQAPGKGLEWVSSISASGSYTNYAESVEGRFTVSRDNAKNSLFLLMSSLRAEDTAVYYCARGDSYCGASACHGEFFHKWGQGTLVTVSS VL: QSVLTQPPSVSGAPGQRVTISCTGSESNIGADFDVHWYQQLPGTAPKLLIYGNINRPSGVPDRFSGSRSGTSAFLAITRLQAEDEADYYCQSYDRSLHYVFGAGTKVTVL | 0.0274
8 | MPH12 VH / MPH12 VL-D25S (antibody, V domains shown, MPH12 variant; VH and VL only) VH: QVQLVESGGGLVKPGGSLRLSCVASGFTFSGFYMKWIRQAPGKGLEWVSSISASGSYTNYADSVEGRFTVSRDNAKNSLFLLMSSLRAEDTAVYYCARGDSYCGASACHGEFFHKWGQGTLVTVSS VL: QSVLTQPPSVSGAPGQRVTISCTGSSSNIGADFDVHWYQQLPGTAPKLLIYGNINRPSGVPDRFSGSRSGTSAFLAITRLQAEDEADYYCQSYDRSLHYVFGAGTKVTVL | 0.0235
9 | MPH12 VH-FRGL-S63A / MPH12 VL (antibody, V domains shown, MPH12 variant; VH and VL only) VH: QVQLVESGGGLVKPGGSLRLSCAASGFTFSGFYMKWIRQAPGKGLEWVSSISASGSYTNYADAVEGRFTISRDNAKNSLYLQMNSLRAEDTAVYYCARGDSYCGASACHGEFFHKWGQGTLVTVSS VL: QSVLTQPPSVSGAPGQRVTISCTGSDSNIGADFDVHWYQQLPGTAPKLLIYGNINRPSGVPDRFSGSRSGTSAFLAITRLQAEDEADYYCQSYDRSLHYVFGAGTKVTVL | 0.0238
10 | MPH12 VH-D62E / MPH12 VL-D25S (antibody, V domains shown, MPH12 variant; VH and VL only) VH: QVQLVESGGGLVKPGGSLRLSCVASGFTFSGFYMKWIRQAPGKGLEWVSSISASGSYTNYAESVEGRFTVSRDNAKNSLFLLMSSLRAEDTAVYYCARGDSYCGASACHGEFFHKWGQGTLVTVSS VL: QSVLTQPPSVSGAPGQRVTISCTGSSSNIGADFDVHWYQQLPGTAPKLLIYGNINRPSGVPDRFSGSRSGTSAFLAITRLQAEDEADYYCQSYDRSLHYVFGAGTKVTVL | 0.0236
11 | MPH12 VH-S63A / MPH12 VL-S26A (antibody, V domains shown, MPH12 variant; VH and VL only) VH: QVQLVESGGGLVKPGGSLRLSCVASGFTFSGFYMKWIRQAPGKGLEWVSSISASGSYTNYADAVEGRFTVSRDNAKNSLFLLMSSLRAEDTAVYYCARGDSYCGASACHGEFFHKWGQGTLVTVSS VL: QSVLTQPPSVSGAPGQRVTISCTGSDANIGADFDVHWYQQLPGTAPKLLIYGNINRPSGVPDRFSGSRSGTSAFLAITRLQAEDEADYYCQSYDRSLHYVFGAGTKVTVL | 0.0258
12 | MPH12 VH-FRGL-S63A / MPH12 VL-FRGL (antibody, V domains shown, MPH12 variant; VH and VL only) VH: QVQLVESGGGLVKPGGSLRLSCAASGFTFSGFYMKWIRQAPGKGLEWVSSISASGSYTNYADAVEGRFTISRDNAKNSLYLQMNSLRAEDTAVYYCARGDSYCGASACHGEFFHKWGQGTLVTVSS VL: QSVLTQPPSVSGAPGQRVTISCTGSDSNIGADFDVHWYQQLPGTAPKLLIYGNINRPSGVPDRFSGSKSGTSASLAITGLQAEDEADYYCQSYDRSLHYVFGTGTKVTVL | 0.0153
13 | MPH12 VH-FRGL-D62E / MPH12 VL (antibody, V domains shown, MPH12 variant; VH and VL only) VH: QVQLVESGGGLVKPGGSLRLSCAASGFTFSGFYMKWIRQAPGKGLEWVSSISASGSYTNYAESVEGRFTISRDNAKNSLYLQMNSLRAEDTAVYYCARGDSYCGASACHGEFFHKWGQGTLVTVSS VL: QSVLTQPPSVSGAPGQRVTISCTGSDSNIGADFDVHWYQQLPGTAPKLLIYGNINRPSGVPDRFSGSRSGTSAFLAITRLQAEDEADYYCQSYDRSLHYVFGAGTKVTVL | 0.051
14 | MPH12 VH-S63A / MPH12 VL (antibody, V domains shown, MPH12 variant; VH and VL only) VH: QVQLVESGGGLVKPGGSLRLSCVASGFTFSGFYMKWIRQAPGKGLEWVSSISASGSYTNYADAVEGRFTVSRDNAKNSLFLLMSSLRAEDTAVYYCARGDSYCGASACHGEFFHKWGQGTLVTVSS VL: QSVLTQPPSVSGAPGQRVTISCTGSDSNIGADFDVHWYQQLPGTAPKLLIYGNINRPSGVPDRFSGSRSGTSAFLAITRLQAEDEADYYCQSYDRSLHYVFGAGTKVTVL | 0.0358
15 | MPH12 VH-FRGL / MPH12 VL (antibody, V domains shown, MPH12 variant; VH and VL only) VH: QVQLVESGGGLVKPGGSLRLSCAASGFTFSGFYMKWIRQAPGKGLEWVSSISASGSYTNYADSVEGRFTISRDNAKNSLYLQMNSLRAEDTAVYYCARGDSYCGASACHGEFFHKWGQGTLVTVSS VL: QSVLTQPPSVSGAPGQRVTISCTGSDSNIGADFDVHWYQQLPGTAPKLLIYGNINRPSGVPDRFSGSRSGTSAFLAITRLQAEDEADYYCQSYDRSLHYVFGAGTKVTVL | 0.0328
16 | MPH12 VH-FRGL-D62E / MPH12 VL-D25E (antibody, V domains shown, MPH12 variant; VH and VL only) VH: QVQLVESGGGLVKPGGSLRLSCAASGFTFSGFYMKWIRQAPGKGLEWVSSISASGSYTNYAESVEGRFTISRDNAKNSLYLQMNSLRAEDTAVYYCARGDSYCGASACHGEFFHKWGQGTLVTVSS VL: QSVLTQPPSVSGAPGQRVTISCTGSESNIGADFDVHWYQQLPGTAPKLLIYGNINRPSGVPDRFSGSRSGTSAFLAITRLQAEDEADYYCQSYDRSLHYVFGAGTKVTVL | 0.0397
17 | MPH12 VH-FRGL-D62E / MPH12 VL-FRGL (antibody, V domains shown, MPH12 variant; VH and VL only) VH: QVQLVESGGGLVKPGGSLRLSCAASGFTFSGFYMKWIRQAPGKGLEWVSSISASGSYTNYAESVEGRFTISRDNAKNSLYLQMNSLRAEDTAVYYCARGDSYCGASACHGEFFHKWGQGTLVTVSS VL: QSVLTQPPSVSGAPGQRVTISCTGSDSNIGADFDVHWYQQLPGTAPKLLIYGNINRPSGVPDRFSGSKSGTSASLAITGLQAEDEADYYCQSYDRSLHYVFGTGTKVTVL | 0.0349
18 | MPH12 VH-S63A / MPH12 VL-D25S (antibody, V domains shown, MPH12 variant; VH and VL only) VH: QVQLVESGGGLVKPGGSLRLSCVASGFTFSGFYMKWIRQAPGKGLEWVSSISASGSYTNYADAVEGRFTVSRDNAKNSLFLLMSSLRAEDTAVYYCARGDSYCGASACHGEFFHKWGQGTLVTVSS VL: QSVLTQPPSVSGAPGQRVTISCTGSSSNIGADFDVHWYQQLPGTAPKLLIYGNINRPSGVPDRFSGSRSGTSAFLAITRLQAEDEADYYCQSYDRSLHYVFGAGTKVTVL | 0.0249
19 | MPH12 VH-D62E / MPH12 VL-FRGL (antibody, V domains shown, MPH12 variant; VH and VL only) VH: QVQLVESGGGLVKPGGSLRLSCVASGFTFSGFYMKWIRQAPGKGLEWVSSISASGSYTNYAESVEGRFTVSRDNAKNSLFLLMSSLRAEDTAVYYCARGDSYCGASACHGEFFHKWGQGTLVTVSS VL: QSVLTQPPSVSGAPGQRVTISCTGSDSNIGADFDVHWYQQLPGTAPKLLIYGNINRPSGVPDRFSGSKSGTSASLAITGLQAEDEADYYCQSYDRSLHYVFGTGTKVTVL | 0.0267
20 | MPH12 VH / MPH12 VL-FRGL (antibody, V domains shown, MPH12 variant; VH and VL only) VH: QVQLVESGGGLVKPGGSLRLSCVASGFTFSGFYMKWIRQAPGKGLEWVSSISASGSYTNYADSVEGRFTVSRDNAKNSLFLLMSSLRAEDTAVYYCARGDSYCGASACHGEFFHKWGQGTLVTVSS VL: QSVLTQPPSVSGAPGQRVTISCTGSDSNIGADFDVHWYQQLPGTAPKLLIYGNINRPSGVPDRFSGSKSGTSASLAITGLQAEDEADYYCQSYDRSLHYVFGTGTKVTVL | 0.0358
21 | MPH12 VH-FRGL-S63A / MPH12 VL-D25E (antibody, V domains shown, MPH12 variant; VH and VL only) VH: QVQLVESGGGLVKPGGSLRLSCAASGFTFSGFYMKWIRQAPGKGLEWVSSISASGSYTNYADAVEGRFTISRDNAKNSLYLQMNSLRAEDTAVYYCARGDSYCGASACHGEFFHKWGQGTLVTVSS VL: QSVLTQPPSVSGAPGQRVTISCTGSESNIGADFDVHWYQQLPGTAPKLLIYGNINRPSGVPDRFSGSRSGTSAFLAITRLQAEDEADYYCQSYDRSLHYVFGAGTKVTVL | 0.0368

Source: patent US20260028391A1 (HUMABS BIOMED, published 2026)
